Experimental data as given in article PMC6971206.

Assays:
[1] = target: bc1 complex (Complex III), dimer (S. cerevisiae (endogenous in BY4741 mitochondria)) (UniProt P07256); assay: native gel or EMSA; BN-PAGE (3-12% NativePage Bis-Tris) of mitochondria solubilised in 2% digitonin, then Western blot or second-dimension SDS-PAGE and immuno decoration; comigration; cells grown in YPGal, YPD or YPG; wild type, rcf1Δ, rcf2Δ and truncation strains
[2] = target: respiratory supercomplexes (III2IV and III2IV2) of bc1 complex and cytochrome c oxidase (S. cerevisiae (endogenous in BY4741 mitochondria)) (UniProt P07256); assay: as above

Question: With “cytochrome c oxidase (Complex IV), monomeric (from UniProt P00401 1-534; P00410 16-251; P00420 1-269; P04037 26-155; P00424 21-153; P00427 41-148; Q01519 1-83; P32799 10-129)” as the molecule, how does the fold change of the share residing in supercomplexes, YPG against YPD [1] read?
Answer: 1.4 fold

B1: Rcf2 (respiratory supercomplex factor 2) (natural protein)
chain: MKILTQDEIEAHRSHTLKGGIEGALAGFAISAIIFKVLPRRYPKFKPSTLTWSIKTALWITPPTVLTAICAEEASNNFDATMYGSGSSSEDALDEHRRWKSLSTKDKFVEGLSNNKYKIITGAWAASLYGSWVIVNKDPIMTKAQKIVQARMYAQFITVGLLLASVGLSMYENKLHPNKQKVNEMRRWENALRVAEEEERLEKEGRRTGYVSNEERINSKIFKS
Question: For B1, which fold change of the share residing in supercomplexes, YPG against YPD [2] is on record?
Answer: 3.7 fold

B2: Rcf1 (respiratory supercomplex factor 1) (natural protein)
chain: MSRMPSSFDVTERDLDDMTFGERIIYHCKKQPLVPIGCLLTTGAVILAAQNVRLGNKWKAQYYFRWRVGLQAATLVALVAGSFIYGTSGKELKAKEEQLKEKAKMREKLWIQELERREEETEARRKRAELARMKTLENEEEIKNLEKELSDLENKLGKK
Question: For B2, which fold change of the share residing in supercomplexes, YPG against YPD [2] is on record?
Answer: 2.5 fold
